Test: soluble on expression in E. coli; label from the status in PepcDB or PDB records

Sequence	soluble on expression in E. coli
MSGAIYRCMAIASEPLDALIIGAGHNGLVCAAYLARAGKRVLVLEAREVVGGAAVTEEFHPGFRNSVAAYTVSLLQPRVIADLALERHGLRVVPRRINNFLPLPNGDYLLAGAGRTAQDVARFSARDAAALPAYEARLEQLADVLRALALQPPPDVTDGGWLQALPQLWRAGKLGLQLQGLPLTLRQELLDLFTISAAEYLDRWFESAPIKALFGFDGIVGNYASPHTPGTAYVLLHHVFGQSNGVKGAWGHAIGGMGAITQAMAASAREYGAQLRTGCAVERVLVEQGHAVGVVTTAGETVRARAVVANVNPKLLYQRLMRPDDVPATTRERIAHYRCGSGTFRMNVALSRLPDFAALPGNGDHLTAGIILAPSLDYMDRAWHDARAFGWSREPVVELLIPSTLDDTLAPPGQHVASLFCQHVAPQLPDGRRWDDHREEVADLMIATVERYAPGFAASVLGRQVLSPLDLERMFGLVGGDIFHGALSLNQLFSARPLLGQGAYRGAVPGLYLCGSGTHPGGGVTGAPGHNAARVILGGLEHHHHHH	not soluble
MSGATPVFTEINQIQGTGDKSPLISSGFISDDEYFVQGVVTARGESLLKGFYLQGLNDDFDPNSSEGIFVSTGSAPSLEIQPGALVCVKAKVQEYYGQTQLKPDTNNFLVQGHQAPVSVTELTINENETLAQALERHEGMQVKLTSHSDLRITRNFSFDYASKRNNMVLSHGEPLFKPTQLFAAESPEAIQLAEENAKRQITIESDNKAPNGEVPYFPDFATDSNQDGSADSYLRLGARIEGLEGVIAYSYGQYRLVTTNTISQENIITQAFDEDGLEHHHHHH	soluble
MSGFLEQRLGHCLRQMAEKGLEALLVTHLTNSYYLTGFSGTAATVLITAKRRVLITDSRYTLLAKASVEGFDIIESRTPLKVVAELLEADQIDCLGFEDQVSFSFYQAMQAELSGITLLAQSGFVEHLR	soluble
MSGIIATYLIHDDSHNLEKKAEQIALGLTIGSWTHLPHLLQEQLKQHKGNVIHVEELAEHEHTNSYLRKKVKRGIIKIEYPLLNFSPDLPAILTTTFGKLSLDGEVKLIDLTFSDELKKHFPGPKFGIDGIRNLLQVHDRPLLMSIFKGMIGRNIGYLKTQLRDQAIGGVDIVKDDEILFENALTPLTKRIVSGKEVLQSVYETYGHKTLYAVNLTGRTFDLKENAKRAVQAGADILLFNVFAYGLDVLQSLAEDDEIPVPIMAHPAVSGAYSASKLYGVSSPLLLGKLLRYAGADFSLFPSPYGSVALEKEEALAISKYLTEDDASFKKSFSVPSAGIHPGFVPFIVRDFGKDVVINAGGGIHGHPNGAQGGGKAFRTAIDATLQNKPLHEVDDINLHSALQIWGNPSYEVKL	soluble
MSGKLTVITGPMYSGKTTELLSFVEIYKLGKKKVAVFKPKIDSRYHSTMIVSHSGNGVEAHVIERPEEMRKYIEEDTRGVFIDEVQFFNPSLFEVVKDLLDRGIDVFCAGLDLTHKQNPFETTALLLSLADTVIKKKAVCHRCGEYNATLTLKVAGGEEEIDVGGQEKYIAVCRDCYNTLKKRV	soluble
MSGLDDRKKLTHAKNRKPLNDIPKSAENRPNTRSTSSRRGAEKDVPITFIGSSRTVKADLPEFTNTRSRRPLHSESKKELSRNPVSRGEEHSSSLPKSSPESSVSVMSSNASLWSACTEEVNKIGVCAKRESRNLRVYKMKSFTSNMEQILSNDNQLAPTVIRILNSRNSWCLNSCHACLTFIMENITSDNYGKRSACLKALASITNSLLDTIIGFASTKTRRIGVDVVAEERAAKATECIHNFRKIVKNRDKIYKQIDQETIYKLDAILERLKKVSSHK	not soluble
MSGLTKIKPPKKARIGLYSAGLNTYWGQFEGLYDCLMGYNRFIEKRLSEWGEVFNFGMVDTEEKGREAGEFFNKNNVDIVFSHAATYYASATVLPVHQINNAPVIILNLQPTAEMAYDTTGTDRWLAQCVGCSIPEISNAFNRAGITFRAVNGLLGLTETPDFAKADEVTCERPEAVRAWKQIEEWCRAAAVKRNLQWARFGFLGGYYSGMLDMYSDFTMLQAQTGIDIEVLEMSDLDAYLKTVTEEEVQEKLKEIQDFFEISGDSPSDPIAKKPTEEQLTWSAKVAIAQEKMVRERNLDSVSYYYHGRDDYLEEVQSGFIVGFSLLNAQGIACAGEGDIKTALAMKIADICGTGGSFCEIVAADFNRDTMILGHDGPFHFAISKGKPILRGMGVYHGKRGSGVSVEAKVRPGAVTTLGVTQTGDGRLKFNISEGEAIDAPILLNGNTSTHIRFSQKPAEYMDRWFQEAPTHHLALSVGHNAELFKKIAELMDIPYAIY	soluble
MSGPNGDLGMPVEAGAEGEEDGFGEAEYAAINSMLDQINSCLDHLEEKNDHLHARLQELLESNRQTRLEFQQQLGEAPSDASP	soluble
MSGRGEPTMKTIIVGIDGSHAAITAALWGVDEAISRAVPLRLVSVIKPTHPSPDDYDRDLAHAERSLREAQSAVEAAGKLVKIETDIPRGPAGPVLVEASRDAEMICVGSVGIGRYASSILGSTATELAEKAHCPVAVMRSKVDQPASDINWIVVRMTDAPDNEAVLEYAAREAKLRQAPILALGGRPEELREIPDGEFERRVQDWHHRHPDVRVYPITTHTGIARFLADHDERVQLAVIGGGEAGQLARLVGPSGHPVFRHAECSVLVVRR	not soluble
MSGSSHYPVANWNLDGIVSGLRGARQEWRGPRGRLREESESGVREFPSQESLRDIMRQLFGALFPMRLGPIDLREEVEDFYVGHTIGAALDALLHQVCLELQHLGRDDPQPYGQVLERAVDIVRRFGAELPAVRKALDLDVTAAYQGDPAARSVDEVLLCYPGVTAMIHHRLANVLYRLGAPMLARIVAEIAHSDTGIDIHPGATIGRSFFIDHGTGVVIGETAIIGERVRLYQMVTLGAKRFPPGENGELKKGLPRHPIIEDDVVIYAGATILGRITIGQGSTIGGNVWLTHSVPPNSTVTQAGAINDMPDCGLGGLEHHHHHH	not soluble
MSGSTHTTERGTGRAAEAAPPATDRFACYVYGIVPEDVEVSPGTVGVGEPAGQVTLVRHGEIAALVSPVDVDRPLGRASDLVAHERLLDGAAAEVPVLPFRFGAVLTSPEAVVEELLAPHHDQFAAALRQLEGKAQHVLKARYAERPVLLEILRENAEARRLRDRIRDLPEDATRTERIRLGELITQAIEAKREADTQAVLDRFASCTVAANVRDPSHERDAAHVAFLVEHAKADEFAEAVEELSDEWADRVEVRVLGPMAPYDFVVAEG	not soluble
MSGWPRIYYKLLNLPLSILVKSKSIPAEPAQELGLDTSRPIMYVLPYNSKADLLTLRAQCLAHDLPDPLEPLEIDGALLPRYVFIHGGPRVFTYYTPKEESVKLFHDYLDLHRSNPALDVQMVPVSVMFGRAPGREKGEDNPPLRMLNGVQKFFAISWLGRDSFVRFSPSVSLRRMADEHGTDKIIAQKLARVARMHFARQRLAAVGPRLPARQDLFNKLLASKAIARAVEDEARSKKISHEKAQQNAIALMEEIAANFSYEMIRLTDRILGFTWNRLYQGINVHNAERVRQLAHDGHEIVYVPCHRSHMDYLLLSYVLYHQGLVPPHIAAGINLNFWPAGPIFRRLGAFFIRRTFKGNKLYSTVFREYLGELFSRGYSVEYFVEGGRSRTGRLLDPKTGTLSMTIQAMLRGGTRPITLVPIYIGYEHVMEVGTYAKELRGATKEKESLPQMLKGLSKLRNLGQGYVNFGEPMPLMTYLNQHVPEWRESIDPIEAIRPAWLTPTVNSIAADLMVRINNAGAANAMNLCCTALLASRQRSLTREQLTEQLDCYLDLMRNVPYSTDSTVPAASAGELIAHALQMNKFEVEKDTIGDIIILPREQAVLMTYYRNNIAHMLIMPSLMAAIITQHRRISRDALQQHVEALYPMLKAELFLRWEREELASVIDALASEMQRQGLITLQDDELHINPTHSRTLQLLAAGARETLQRYAITFWLLSANPSINRSTLEKESRTVAQRLSVLHGINAPEFFDKAVFSSLVLTLRDEGYISDTGDAEPAETMKIYQMLADLITSDVRLTIESATQGE	not soluble

Source: the DeepSol protein solubility set
